This assay has as its target FSFG6 (a segment of Nsp1FG that contains six repeats of the FxFG-type region) (S. cerevisiae). Put plainly: SPR; XPR36 (BioRad), GLC chip; FG construct conjugated by its C-terminal cysteine to maleimide surface, quenched with beta-mercaptoethanol; analyte in TBT-PVP at 100 μl/min, association 15-120 s, dissociation 10 min, 25°C. On the technique in general: Surface plasmon resonance follows binding to a sensor surface in real time, without labels.

Regarding “Kap95 (without the GST domain) (from UniProt Q06142 1-861) (natural protein)”, the fastest association rate estimated from the kinetic model fits was 3e+06 M⁻¹ s⁻¹.
